Test results reported in US20210380703A1 (RIGEL PHARMACEUTICALS, published 2021).
Positions count from the first letter of the chain named.

B1: 368_G09 (antibody, V domains shown)
VH: EVQLLESGGGLVQPGGSLRLSCAASGFTFDSYGMHWVRQAPGKGLEWVANINYNGGYTSYADSVKGRFTISRDNSKNTLYLQMNSLRAEDTAVYYCARSATWHDTHLDYWGQGTLVTVSS
VL: DIQMTQSPSSLSASVGDRVTITCRASQSIVSYLNWYQQKPGKAPKLVIYAATSRASGVPSRFSGSGSGTDFTLTISSLQPEDFATYYCQQSYDTPLTFGGGTKVEIK
notes: VH/VL only
B2: 369_A05 (antibody, V domains shown)
VH: B1 VH with D30S, G33S, H35N, N50G, S59G
VL: B1 VL with V30L, S31T, L33V, D93E, T94S
notes: VH/VL only
B3: 369_E10 (antibody, V domains shown)
VH: B1 VH with D30S, G33S, H35N, A49S, T58K, H106A
VL: B1 VL with V30L, L33V, T94L
notes: VH/VL only
B4: 371_H01 (antibody, V domains shown)
VH: B1 VH with G33S, H35N, N50G, S59G
VL: not shown
notes: VH/VL only
B5: 370_B05 (antibody, V domains shown)
VH: B1 VH with D30S, H35N, N50S
VL: B1 VL with V30L, S31T, L33V, D93E, T94N
notes: VH/VL only
B6: 369_B02 (antibody, V domains shown)
VH: B1 VH with G33S, H35N, A49S, N50G, T58K
VL: B1 VL with V30L, D93N, T94L
notes: VH/VL only
B7: 373_B03 (antibody, V domains shown)
VH: B1 VH with D30S, G33S, H35N, N50G, G55S, T58K
VL: B1 VL with V30L, S31T, R54L, T94N
notes: VH/VL only
B8: 369_F12 (antibody, V domains shown)
VH: B1 VH with D30S, G33S, H35N, N50S, G55S, T58K
VL: B1 VL with V30I, V47L, A51V, R54L, D93E, T94N
notes: VH/VL only
B9: 369_G07 (antibody, V domains shown)
VH: B1 VH with D30S, G33S, H35N, N50G
VL: B1 VL with V30L, S31T, L33V, T94N
notes: VH/VL only
B10: 370_G12 (antibody, V domains shown)
VH: B1 VH with D30S, G33S, H35N, N50G, T58K, S59G, H106A
VL: B1 VL with V30I, S31T, V47L, R54L, Y92D, D93E, T94S
notes: VH/VL only
B11: 371_G03 (antibody, V domains shown)
VH: B1 VH with D30S, H35N, T58K, S59G
VL: B1 VL with S31T, L33V, R54L, D93N, T94L
notes: VH/VL only
B12: 369_D11 (antibody, V domains shown)
VH: B1 VH with D30S, N50S
VL: B1 VL with V30L, S31T, R54L, Y92D, D93E, T94L
notes: VH/VL only
B13: 369_F07 (antibody, V domains shown)
VH: B1 VH with G33S, H35N, N50G, T58K
VL: B1 VL with V30L, L33V, D93E, T94S
notes: VH/VL only
B14: 370_F08 (antibody, V domains shown)
VH: B1 VH with G33S, H35N, N50G
VL: B1 VL with V30I, L33V, V47L, A55H, D93N, T94L
notes: VH/VL only
B15: 371_D03 (antibody, V domains shown)
VH: B1 VH with H35N, H106A
VL: B1 VL with V30L, S31T, L33V, R54L, D93N
notes: VH/VL only
B16: 371_C09 (antibody, V domains shown)
VH: B1 VH with G33S, H35N, A49S, N50G, T58K
VL: B1 VL with V30L, S31T, L33V, V47L, T52S, R54L, A55Q, T94N
notes: VH/VL only
B17: 368_H12 (antibody, V domains shown)
VH: B1 VH with G33S, H35N, N50S, G55S, T58K, S59G
VL: B1 VL with S31T, V47L, D93E, T94S
notes: VH/VL only
B18: 369_B09 (antibody, V domains shown)
VH: B1 VH with N50S
VL: B1 VL with V30L, S31T, V47L, D93E, T94N
notes: VH/VL only
B19: 372_F07 (antibody, V domains shown)
VH: B1 VH with S31D, G33S, H35N, N50G, G55S, T58K, S59G
VL: B1 VL with V30L, S31T, D93E, T94L
notes: VH/VL only
B20: 373_E02 (antibody, V domains shown)
VH: B1 VH with A49S, N50G, T58K, S59G
VL: not shown
notes: VH/VL only
B21: 369_B12 (antibody, V domains shown)
VH: B1 VH with G33S, H35N, A49S, N50G, T58K
VL: B1 VL with V30L, S31T, L33V, V47L, A51T, R54L, T94S
notes: VH/VL only
B22: 370_H03 (antibody, V domains shown)
VH: B1 VH with G33S, H35N, N50G, G55S, T58K, S59G
VL: B1 VL with V30L, S31T, V47L, R54L
notes: VH/VL only
B23: 368_H01 (antibody, V domains shown)
VH: B1 VH with D30S, G33S, H35N, N50G, G55S, T58K
VL: B1 VL with V30L, V47L, A51T, R54L, T94N
notes: VH/VL only
B24: 368_H07 (antibody, V domains shown)
VH: B1 VH with D30S, N50S, G55S
VL: B1 VL with V30L, V47L, D93E, T94N
notes: VH/VL only
B25: 370_E07 (antibody, V domains shown)
VH: B1 VH with G33S, H35N, S59G
VL: B1 VL with V30L, S31T, V47L, T94N
notes: VH/VL only
B26: 372_D04 (antibody, V domains shown)
VH: B1 VH with D30S, G33S, H35N, G55S, S59G
VL: B1 VL with V30L, S31T, V47L, R54L, A55H, T94L
notes: VH/VL only
B27: 373_E03 (antibody, V domains shown)
VH: B1 VH with H35N, A49S, S59G, H106A
VL: B1 VL with V30L, L33V, T94L
notes: VH/VL only
B28: 370_C04 (antibody, V domains shown)
VH: B1 VH with D30S, H35N, N50S, G55S
VL: B1 VL with V30L, V47L, T52S, R54L, A55Q, D93E, T94N
notes: VH/VL only
B29: 373_B08 (antibody, V domains shown)
VH: B1 VH with G33S, H35N, G55S, T58K, S59G
VL: B1 VL with V30L, S31T, R54L, D93E, T94N
notes: VH/VL only
B30: 373_B11 (antibody, V domains shown)
VH: B1 VH with D30S, G33S, H35N, G55S, T58K, S59G
VL: B1 VL with V30L, V47L, T94N
notes: VH/VL only
B31: 369_C10 (antibody, V domains shown)
VH: B1 VH with D30S, G33S, H35N, H106A
VL: B1 VL with S31T, V47L, R54L, A55H, Y92D, D93S, T94L
notes: VH/VL only
B32: 369_A10 (antibody, V domains shown)
VH: B1 VH with G33S, H35N, N50G, G55S, S59G
VL: B1 VL with V30L, V47L, D93E, T94L
notes: VH/VL only
B33: 371_F05 (antibody, V domains shown)
VH: B1 VH with D30S, G33S, H35N, N50G, G55S, T58K
VL: B1 VL with V30L, V47L, A55H, D93E, T94N
notes: VH/VL only
B34: 370_A06 (antibody, V domains shown)
VH: B1 VH with D30S, G33S, H35N, N50S, G55S, T58K
VL: B1 VL with S31T, R54L, T94L
notes: VH/VL only
B35: 373_C09 (antibody, V domains shown)
VH: B1 VH with G33S, H35N, N50G, G55S, T58K
VL: B1 VL with V30L, S31T, D93E, T94L
notes: VH/VL only

biological target: T1, biotinylated goat anti-human kappa light chain; assay: ELISA; positive control
T1 construct: Positive control of the ELISA
How it was run: (§1)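 Monoclonal antibodies were first applied to human or mouse ACVR2A, alongside biotinylated goat anti-human kappa light chain (positive control) and human Fc (negative control); binding was then determined by ELISA.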
Further: test concentration or dose not given here.

optical density [OD]	Binder
3.62	B1
3.48	B2
3.59	B3
3.69	B4
3.49	B5
3.52	B6
3.16	B7
3.6	B8
2.98	B9
3.52	B10
3.59	B11
3.45	B12
3.47	B13
3.59	B14
3.57	B15
3.39	B16
3.57	B17
2.22	B18

optical density [OD]	Binder
3.4	B19
2.92	B20
3.56	B21
3.56	B22
3.69	B23
3.55	B24
3.45	B25
3.38	B26
3.25	B27
3.6	B28
3.22	B29
3.22	B30
3.37	B31
3.41	B32
3.33	B33
3.47	B34
3.22	B35

biological target: mouse ACVR2A (mouse, UniProt P27038 20-135, limits assumed); assay: ELISA
How it was run: as §1

mouse ACVR2A, sequence (P27038 20-135 limits assumed): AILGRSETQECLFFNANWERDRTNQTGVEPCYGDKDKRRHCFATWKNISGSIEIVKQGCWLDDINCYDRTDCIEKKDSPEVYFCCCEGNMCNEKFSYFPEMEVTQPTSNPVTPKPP

optical density [OD]	Binder
2.81	B1
3.25	B2
3.53	B3
3	B4
3.11	B5
3.55	B6
3.62	B7
2.82	B8
3.37	B9
1.6	B10
3.27	B11
2.99	B12
3.43	B13
2.99	B14
1.83	B15
3.29	B16
2.69	B17
1.58	B18

optical density [OD]	Binder
3.24	B19
3.64	B20
2.76	B21
3.56	B22
3.14	B23
2.86	B24
3.5	B25
3.41	B26
3.46	B27
2.63	B28
3.66	B29
3.65	B30
2.46	B31
3.14	B32
3.15	B33
2.77	B34
3.6	B35

biological target: human ACVR2A (human, UniProt P27037 20-135, limits assumed); assay: ELISA
How it was run: as §1

human ACVR2A, sequence (P27037 20-135 limits assumed): as the sequence (P27038 20-135 limits assumed) above, with R20K, I73V counted along it

optical density [OD]	Binder
2.44	B1
3.29	B2
3.36	B3
3.03	B4
2.84	B5
3.4	B6
3.64	B7
2.73	B8
3.32	B9
1.34	B10
3.12	B11
2.99	B12
3.43	B13
2.34	B14
1.54	B15
3.37	B16
2.64	B17
1.62	B18

optical density [OD]	Binder
3.25	B19
3.61	B20
2.67	B21
3.43	B22
3.03	B23
2.71	B24
3.44	B25
3.4	B26
3.46	B27
2.32	B28
3.7	B29
3.72	B30
2.48	B31
3.38	B32
2.89	B33
2.59	B34
3.64	B35
